Reference: article PMC4759655 (Immunity, 2016)

Target: the molecule itself
Experiment: cross-linking

B1: CD45 protein tyrosine phosphatase (receptor, UniProt P06800 26-1293, looked up)
chain: QTPTPSDELSTTENALLLPQSDPLPARTTESTPPSISERGNGSSETTYHPGVLSTLLPHLSPQPDSQTPSAGGADTQTFSSQADNPTLTPAPGGGTDPPGVPGERTVPGTIPADTAFPVDTPSLARNSSAASPTHTSNVSTTDISSGASLTTLTPSTLGLASTDPPSTTIATTTKQTCAAMFGNITVNYTYESSNQTFKADLKDVQNAKCGNEDCENVLNNLEECSQIKNISVSNDSCAPATTIDLYVPPGTDKFSLHDCTPKEKANTSICLEWKTKNLDFRKCNSDNISYVLHCEPENNTKCIRRNTFIPERCQLDNLRAQTNYTCVAEILYRGVKLVKNVINVQTDLGIPETPKPSCGDPAARKTLVSWPEPVSKPESASKPHGYVLCYKNNSEKCKSLPNNVTSFEVESLKPYKYYEVSLLAYVNGKIQRNGTAEKCNFHTKADRPDKVNGMKTSRPTDNSINVTCGPPYETNGPKTFYILVVRSGGSFVTKYNKTNCQFYVDNLYYSTDYEFLVSFHNGVYEGDSVIRNESTNFNAKALIIFLVFLIIVTSIALLVVLYKIYDLRKKRSSNLDEQQELVERDDEKQLMDVEPIHSDILLETYKRKIADEGRLFLAEFQSIPRVFSKFPIKDARKPHNQNKNRYVDILPYDYNRVELSEINGDAGSTYINASYIDGFKEPRKYIAAQGPRDETVDDFWRMIWEQKATVIVMVTRCEEGNRNKCAEYWPSMEEGTRAFKDIVVTINDHKRCPDYIIQKLNVAHKKEKATGREVTHIQFTSWPDHGVPEDPHLLLKLRRRVNAFSNFFSGPIVVHCSAGVGRTGTYIGIDAMLEGLEAEGKVDVYGYVVKLRRQRCLMVQVEAQYILIHQALVEYNQFGETEVNLSELHSCLHNMKKRDPPSDPSPLEAEYQRLPSYRSWRTQHIGNQEENKKKNRNSNVVPYDFNRVPLKHELEMSKESEPESDESSDDDSDSEETSKYINASFVMSYWKPEMMIAAQGPLKETIGDFWQMIFQRKVKVIVMLTELVNGDQEVCAQYWGEGKQTYGDMEVEMKDTNRASAYTLRTFELRHSKRKEPRTVYQYQCTTWKGEELPAEPKDLVSMIQDLKQKLPKASPEGMKYHKHASILVHCRDGSQQTGLFCALFNLLESAETEDVVDVFQVVKSLRKARPGVVCSYEQYQFLYDIIASIYPAQNGQVKKTNSQDKIEFHNEVDGGKQDANCVRPDGPLNKAQEDSRGVGTPEPTNSAEEPEHAANGSASPAPTQSS
  stoichiometry N: 2
